Patent US20250129168A1
Residue numbers refer to the chain shown, from its start.

B1: 2M24A.23 hFab H1 (Fab, V domains shown)
VH: QVQLVQSGAEVKKPGASVKVSCKSSGYTFTDYYIHWVRQAPGQGLEWMGWINPNSGDTNYAQKFQGRVTMTRDTSISTAYMELSRLRSDDTAVYYCARNSGSYSFGYWGQGTLVTVSS
VL: DIQMTQSPSSVSASVGDRVTITCRASQGISSWLAWYQQKPGKAPKLLIFGASSLQSGVPSRFSGSGSGTDFTLTVSSLQPEDFATYYCQQAYSFPFTFGPGTKVDIE
B2: 2M24A.25 hFab H3 (Fab, V domains shown)
VH: B1 VH with S24A
VL: B1 VL
B3: 2M24A.26 hFab H4 (Fab, V domains shown)
VH: B1 VH with I34M
VL: B1 VL
B4: 2M24A.1.13 hFab (Fab, V domains shown)
VH: B1 VH with V68I, M81L, Y94F, N99A
VL: B1 VL
B5: 2M24A.1.14 hFab (Fab, V domains shown)
VH: B1 VH with V68I, M81L, Y94F, Y103A
VL: B1 VL
B6: 2M24A.1.22 (Fab, V domains shown)
VH: B1 VH with V68I, M81L, Y94F, Y107A
VL: B1 VL
B7: 2M24A.1.17 (Fab, V domains shown)
VH: B1 VH with V68I, M81L, Y94F, G101A
VL: B1 VL
B8: 2M24A.1.20 (Fab, V domains shown)
VH: B1 VH with V68I, M81L, Y94F, F105A
VL: B1 VL
B9: 2M24A.1.6 hFab (Fab, V domains shown)
VH: B1 VH with D31A, V68I, M81L, Y94F
VL: B1 VL with Y92F
B10: 2M24A.1.21 (Fab, V domains shown)
VH: B1 VH with V68I, M81L, Y94F, G106A
VL: B1 VL
B11: 2M24A.1.3 hFab (Fab, V domains shown)
VH: B1 VH with V68I, M81L, Y94F, N99A
VL: B1 VL with Y92A
B12: 2M24A.1.15 (Fab, V domains shown)
VH: B1 VH with V68I, M81L, Y94F, R98A
VL: B1 VL
B13: 2M24A.1.1 hFab (Fab, V domains shown)
VH: B1 VH with D31A, V68I, M81L, Y94F
VL: B1 VL with Y92A
B14: 2M24A.1.2 hFab (Fab, V domains shown)
VH: B1 VH with D57A, V68I, M81L, Y94F
VL: B1 VL with Y92A
B15: 2M24A.1.9 hFab (Fab, V domains shown)
VH: B1 VH with V68I, M81L, Y94F, Y103A
VL: B1 VL with Y92F
B16: 2M24A.1.18 (Fab, V domains shown)
VH: B1 VH with V68I, M81L, Y94F, S102A
VL: B1 VL
B17: 2M24A.1.8 hFab (Fab, V domains shown)
VH: B1 VH with V68I, M81L, Y94F, N99A
VL: B1 VL with Y92F
B18: 2M24A.1.12 hFab (Fab, V domains shown)
VH: B1 VH with D57A, V68I, M81L, Y94F
VL: B1 VL
B19: 2M24A.1.11 hFab (Fab, V domains shown)
VH: B1 VH with D31A, V68I, M81L, Y94F
VL: B1 VL
B20: 2M24A.1.4 hFab (Fab, V domains shown)
VH: B1 VH with V68I, M81L, Y94F, Y103A
VL: B1 VL with Y92A
B21: 2M24A.1.19 (Fab, V domains shown)
VH: B1 VH with V68I, M81L, Y94F, S104A
VL: B1 VL
B22: 2M24A.1.16 (Fab, V domains shown)
VH: B1 VH with V68I, M81L, Y94F, S100A
VL: B1 VL
B23: 2M24A.1.7 hFab (Fab, V domains shown)
VH: B1 VH with D57A, V68I, M81L, Y94F
VL: B1 VL with Y92F

The binders below were run against recombinant human-Dectin-1 mouse Fc fusion (human) (UniProt Q9BXN2) (assay: biosensor, Fab, Ave K dis (n = 3); repeats Table 3).

Row | koff | Binder
1 | 0.00396 s⁻¹ | B1
2 | 0.0037 s⁻¹ | B2
3 | 0.00264 s⁻¹ | B3

These binders were tested against recombinant human-Dectin-1 mouse Fc fusion (human) (UniProt Q9BXN2) (assay: biosensor, Fab, first K dis column).

Row | koff | Binder
4 | 0.00841 s⁻¹ | B1
5 | 0.00765 s⁻¹ | B2
6 | 0.0053 s⁻¹ | B3

Each binder was assayed against recombinant human-Dectin-1 mouse Fc fusion (human) (UniProt Q9BXN2) (assay: biosensor, Fab, Ave of three).

Row | koff | Binder
7 | 0.00396 s⁻¹ | B1
8 | 0.0037 s⁻¹ | B2
9 | 0.00264 s⁻¹ | B3

Each binder was assayed against recombinant human-Dectin-1 mouse Fc fusion (human) (UniProt Q9BXN2) (assay: biosensor, Fab, second K dis column).

Row | koff | Binder
10 | 0.00143 s⁻¹ | B1
11 | 0.00132 s⁻¹ | B2
12 | 0.00102 s⁻¹ | B3

Each binder was assayed against recombinant human-Dectin-1 mouse Fc fusion (human) (UniProt Q9BXN2) (assay: Octet BLI, response at X).

Row | X = 340 | X = 470 | X = 290 | X = 350 | Binder
13 | 0.028 | 0 |  |  | B4
14 | 0.106 | 0 |  |  | B5
15 |  |  | 0.131 | 0.112 | B6
16 |  |  | 0.131 | 0.129 | B7
17 |  |  | 0.0981 | 0.0215 | B8
18 | 0.493 | 0.39 |  |  | B9
19 |  |  | 0.125 | 0.114 | B10
20 | 0 | 0 |  |  | B11
21 |  |  | 0.082 | 0.0314 | B12
22 | 0.305 | 0.006 |  |  | B13
23 | 0.331 | 0.006 |  |  | B14
24 | 0.018 | 0 |  |  | B15
25 |  |  | 0.138 | 0.124 | B16
26 | 0.042 | 0 |  |  | B17
27 | 0.49 | 0.399 |  |  | B18
28 | 0.499 | 0.418 |  |  | B19
29 | 0 | 0 |  |  | B20
30 |  |  | 0.126 | 0.0983 | B21
31 |  |  | 0.12 | 0.114 | B22
32 | 0.51 | 0.398 |  |  | B23

These binders were tested against recombinant human-Dectin-1 mouse Fc fusion (human) (UniProt Q9BXN2) (assay: biosensor, Fab, third K dis column).

Row | koff | Binder
33 | 0.00204 s⁻¹ | B1
34 | 0.00214 s⁻¹ | B2
35 | 0.0016 s⁻¹ | B3

These binders were tested against recombinant human-Dectin-1 mouse Fc fusion (human) (UniProt Q9BXN2) (assay: Octet BLI, delta between the two X values).

Row | delta | Binder
36 | 100% | B4
37 | 100% | B5
38 | 15% | B6
39 | 1% | B7
40 | 78% | B8
41 | 21% | B9
42 | 8% | B10
43 | 62% | B12
44 | 98% | B13
45 | 98% | B14
46 | 100% | B15
47 | 9% | B16
48 | 100% | B17
49 | 19% | B18
50 | 16% | B19
51 | 22% | B21
52 | 5% | B22
53 | 22% | B23
